From the DeepSol protein solubility set

Test: soluble on expression in E. coli; label from the status in PepcDB or PDB records

Sequence | soluble on expression in E. coli
MSEPAVVSILDTDLYKLTMLQAVLEHYPDAQVSYKYTNRSPKMALNQEAYNWLREQIRGLRNLHLLPEEEQWLRKNCPYLKESFYEFMHEFEFDPENSISLNYDSETKDLSIFIHGLWKNTIFYEIPLLALVSESYFKFVDKDWSPEGQFEKAYEKGKRLIRAGCAFTDFGTRRRRDPHTQEIVLQGLMKAQEDFKGPGSFLGTSNVYFAAKYNLNVSGTVAHEWYMGIAAITQNYKQANRIASLKWVQTFGTSLLIALTDTFSTDVFLKSFTANSADDLANVFHGVRQDSGCAEEYIEKVVKHYKSIGVDPSTKVIVHSDALNVDRCIELYKYCEKCGIKSAFGIGTNLTSDFQKVSNPSEVSKPMNIVIKLFSAEGTKAVKISDDIMKNTGDRDAVIQAKHQLCLPIA | soluble
MSEPLHALARQLEQAIRASEPFQQLKRAYEDVRRDETAYRMFANVRDIQLRLHEKQMRGAAILPDEIEQAQKAMALAQQNEKLARLMALEQQMSITIAEVQQIAMKPLEELHRSFMEGR | soluble
MSEPLIVGIRHHSPACARLVKSLIESQRPRYVLIEGPADFNDRVDELFLAHQLPVAIYSYCQYQDGAAPGRGAWTPFAEFSPEWQALQAARRIQAQTYFIDLPCWAQSEEEDDSPDTQDESQALLLRATRMDNSDTLWDHLFEDESQQTALPSALAHYFAQLRGDASGDALNRQREAFMARWIGWAMQQNNGDVLVVCGGWHAPALAKMWRECPQKINKPELPSLADAVTGCYLTPYSEKRLDVLAGYLSGMPAPVWQNWCWQWGLQKAGEQLLKTILTRLRQHKLPASTADMAAAHLHAMALAQLRGHTLPLRTDWLDAIAGSLIKEALNAPLPWSYRGVIHPDTDPILLTLIDTLAGDGFGKLAPSTPQPPLPKDVTCELERTAISLPAELTLNRFTPDGLAQSQVLHRLAILEIPGIVRQQGSTLTLAGNGEERWKLTRPLSQHAALIEAACFGATLQEAARNKLEADMLDAGGIGSITTCLSQAALAGLASFSQQLLEQLTLLIAQENQFAEMGQALEVLYALWRLDEISGMQGAQILQTTLCATIDRTLWLCESNGRPDEKEFHAHLHSWQALCHILRDLHSGVNLPGVSLSAAVALLERRSQAIHAPALDRGAALGALMRLEHPNASAEAALTMLAQLSPAQSGEALHGLLALARHQLACQPAFIAGFSSHLNQLSEADFINALPDLRAAMAWLPPRERGTLAHQVLEHYQLAQLPVSALQMPLHCPPQAIAHHQQLEQQALASLQNWGVFHV | not soluble
MSEQKRRTIQIAISEDHYEELQKALELLKGTQLPFSTTVEQFVELILSNYVATSNKISSLAKSGFDVASLQQELEKIGNLSGVDDNLKGFLSELLKTSRNGFSNPNKDGKKNDDDNNSSSKS | soluble
MSERAYNFNAGPAALPLEVLERAQAEFVDYQHTGMSIMEMSHRGAVYEAVHNEAQARLLALLGNPTGYKVLFIQGGASTQFAMIPMNFLKEGQTANYVMTGSWASKALKEAKLIGDTHVAASSEASNYMTLPKLQEIQLQDNAAYLHLTSNETIEGAQFKAFPDTGSVPLIGDMSSDILSRPFDLNQFGLVYAGAQKNLGPSGVTVVIVREDLVAESPKHLPTMLRYDTYVKNNSLYNTPPSFGIYMVNEVLKWIEERGGLEGVQQANRKKASLIYDAIDQSGGFYRGCVDVDSRSDMNITFRLASEELEKEFVKASEQEGFVGLKGHRSVGGLRASIYNAVPYESCEALVQFMEHFKRSRG | soluble
MSESSVTTEIVVRLPKQMVTELDGIGKQENKNRHELICQATQLLLRQHKTKKRYQHESMRRGYIEMGKINLGIASEAFLAEYEAAHTVERLVSGG | not soluble
MSETPLLFQTRDYRGATIEDLNIPLAVSINPTTSIYEAIGIAFENEFTYLPVIHERTKRLLGVINIEELKSNGDKLKRSILAPIVKSYMIWFNQSAKRKYEQENKEVLSSNRTAPKTTILKPRGKRYEVLTPMTPLEKLAEFFNSGNYFAIVTNGHGDFVYGVVTPQDLMKYEQSRPKL | soluble
MSEVDKAHLAAINKDVQANDTLFGKIIRKEIPAKIIFEDDEALAFHDVSPQAPIHFLVIPKRRIDMLENAVDSDAALIGKLMVTASKVAKQLGMANGYRVVVNNGKDGAQSVFHLHLHVLGGRQLQWPPG | not soluble
MSEVIQDRRSAVDTARAGHMLERARWAAAAYGEYDAATVEGIVAAVAEAAHAHAERFAADAVAETGMGVVADKVRKNRACSRGIVEYYRGHDYISPRVDPDRKIVELPRPAGVVLALTPTTNPVATVYFKTILALMTRNAVVVAPHPRAARCSAEAARVLAEAAVAAGAPDGVVQVIDEPSIPLVQALMADERTDVIVATGGTAVVRAAYSSGNPALGVGPGNVPVLVDASADVAAAAQRIVDSKAFDNSVLCTNESVLIAEDAVADKLRAALTRAGAHILDEDGARRLRAYMFADGHLNTDVVGRDAAWIAGQAGLRVTPKTRVLIAPFDHVIAEEMLAHEKLSPVLGMTTVADAARGIRAARAVVRIGGAGHSAAIHSENPAVITDFAAQVPVLRVSVNVGNSTGSAGLDTNLAPSMTIGTGFVGRSSIGENLQPHNLVNWTRIAYNSDPGVVMGNFTGIDPWRAPAGPVPAYPRASNDRDGAVIQAAPQRSYQSPSRTTDVNLDALRAELRALVVEELAQLIKR | not soluble
MSEVNKKVQDGVDDYLEEEDFGQLLEAFDKSREEATTEGVIVEIKNDEVYVDIGKKSEGILALSEIQGDNSKLLFNVGDSIKVAVMGSRGGRSLLSHKKALRKEKVIEFIKNYQENQDDIFTVKVVGKNKGGLIVVDENDVEFFLPKSQYGFKETNNIIGKTFKVKIIKIDKDEQSIIVSRKKTLDDERRKRKELINNVAQQEDLIEGIVKKITTYGMFVDVGGVDGLVHYSEISYKGPVNPGTLYKEGDKVPVKVIKYDKERKHLSLSIKAALPDPWSEIKDTLDIGDTIKVIVSNIEPYGAFVDLGNDIEGFLHISEISWDKNIKNPKDYINKGQEIDVEVIEINPNERRLRVSLRNLLSRPFDEFMKSYKIADVVEGEITSVTSFGAFVKLGGIEGLLHNEDASWDRNDKCKDKFSQGDKIKVKIIKIDEENQKISLSTKELSSSPVQEYAKIHKVGDIVKGAIRDIKDFGVFVELSKNVDALIHKEDISTSMLENLKIGDDIEAAIVFIDEKKNRIRLSVKNLVRIKEREVLNEINNDDKVTLGDIIKDQLALEHHHHHH | soluble
MSEVYRLTCIVCPLSCSIEVEIEAGKIKDIKGYTCPRGKEWAIEEIRAPKRVVMSVIPVEGGKLPTVSVKTEKPIPKDKIPELMKMLAKLKLKAPVKVGQVVGEFEGVKIIATREALEHHHHHH | not soluble
MSFEAFTELYIRDVKNRLKENTWLTKEHIIRTKILPFFGKLKISEISTKEIITWQNEMLAYRDEKKKPYSQTYLKTLHNQLSAIFNHAVRYYELRSNPAAKVGNMGSELEHHHHHH | not soluble
MSFETISVIGLGYIGLPTAAAFASRKKKVIGVDVNAHAVETINRGAIHIVEPDLDKVVKIAVEGGYLQAVTKPQAADAFLIAVPTPFKGDHEPDMIFVESAAKSIAPVLKKGDLVILESTSPVGATEQMAQWLAEARPDLSFPQQAGEAADINIAYCPERVLPGQVMVELIQNDRVIGGMTPKCSARASALYKIFLEGECVVTNSRTAEMCKLTENSFRDVNIAFANELSLICDEQGINVWELIRLANRHPRVNILQPGPGVGGHCIAVDPWFIVSQNPQLARLIHTARLVNDGKPLWVVDRVKAAVADCLAASDKRASEVKIACFGLAFKPDIDDLRESPAVGVARLIAEWHVGETLVVEPNVEQLPKSLMGLVTLKDTATALQQADVLVMLVDHKQFKAIKPEDIKQQWIVDTKGVWR | not soluble
MSFFHANQREALNQSLSELQGQINVSFEFFPPRTSEMEDTLWSSIDRLSTLKPKFVSVTYGANSGERDRTHSIIKGIKERTGLEAAPHLTCIDASPTQLRDIAIDYWNSGIRHIVALRGDLPPNSGKPEMYACDLVGLLKDVGDFDISVAAYPEIHPEAKSAQADLINLKRKIDAGANRAITQFFFDVESYLRFRDRCVATGIDVEIVPGILPVSNFKQLQRFATMTNVRVPNWMTSIFDGLDNDPETRKMVGASVAMDMVKILSREGVKDFHFYTLNRAELSYAICHTLGVRP | not soluble
MSFIAYPCAVPTQRQVPMSPPTTPRILMKLCPIMEIPIIGGPRQNGTYNVFIFDLKIRKFIPHRCSSCAVKILEDHLSPMYASGSVIFMRNEVTQEVEQYVYSFETGGFQQVDYPELVYSAEKFTESSFIVMIENSDGKKVLIERGGNEAVRKLEYRLGKCVEMPKVEVQLLAAEEFDDADPWSDNDSLSSEHLDYNETLPAFKTTFCQDFQMYVLYIITSRGHYEKYIYNQSTSQFEILDCEKCPDTTREVDLLPKYAEFCEEIQAYVIHVFNSFTDRMEQYVFDSKIQGFVEVNQPELKYDSSKDQDPTSSIFFVLKGTTVIMRGAQGRLKKEVYCSIKKHFVEVPNSVIKSFDTQFMEKKQKMDKKKKAKKIKKSKKKASKESQELDVLVEKIRLCDDPFSDGPSCSTSPDIPEDAPDDGMSILKQKFVESLTTLYGGSLPPYVQKELEQI | not soluble
MSFLQHYKSGNLVLPSALLFHYKDIFSNADDFLVWQFFYFQNTTKMEDIATSQIATAIGKTVPEVNRSVSNLISQELLDMKTIELDGESEVLFDATLALKKLDDLLTAADETTVSSSKGISNALKDLVEDFERELGRMLSPFELEDLQKTVSDDKTDPDLVRSALREAVFNGKTNWNYIQAILRNWRHEGISTLRQVEERRKEREQANPANVTVSDDFLSAMNLWSDSDAR | not soluble
MSFPAASIDLGTNTARLLIGSVEAGRIEHLLVKRHITRLGGGFTKERGISPEAWSRSLAALVDFADEMNRAGVVRVRAVATSAVRDAVNGGDFCADVAERTGISLEVIDGEEEALLTLAGVLSGLDRKEGRFFVFDVGGGSTEYTLASGNAPLYTESLPLGVVRLTEGKSDLPAMEEKVGRELAGLRERLAGRALDGQLAGATLVGTAGTATTLAAISLGMTDYDYRRVNNHLLSRDEIARILALLLPLSPAERLAVPGLEKGREDLIVAGTLITLATMDLFGFESMTVSDFGLLEGALIGLARTDELEHHHHHH | not soluble
MSFRPEYKEYFKQGATARIYNGAFEDAGFYDEVDIKEFEYSREEKTFYYPCPCGDRFEISLEDLRNGEVVARCPSCSLIVCTVYEAEDLEKYL | not soluble
MSFSKLLDLLTGREAQRTAIDWDAKYGTDTRSTVELHGLTISHDSRRFGERYQASDPSALSDALAFVGLDPRSYRFVDLGCGKGRMLIVAAELGFKSCIGVEFADELAQTAKANAAAAGFDTISVVHGDAGAYAFQDEPFVLYLFNPFSHQIMQRVRDNLLKLRRAEYYVIYKNPRERRIFDEMQTLRYLGTPPAHKGVWGVHVWGPRGELEHHHHHH | not soluble
MSFVSVLSIAHKKGRGWPLLDMEIRELCCMLHKVFYLVRCTGIGFDFFRKFVLILFLAYTFKTIDSMASERKLKKQITGAISEVFTDAFLLKLFVKEEKNAEVETILNRILQLQDTTIAKIRCNDGKHNPALVKKYYRRLVDDFKEELSEIVKSISACASDN | not soluble
MSGIFSVYVGNAPFQTTEEELGNFFSSIGQINNVRIVCDRETGRPRGFAFIEFAEEGSAQRAVEQMNGAEFNGRPLRVNLANK | soluble
MSGKERNLPTHRISRFSKFASLATRVAGNVIAEGTKQIAKGNRPKAKDLLLTPQNIARLTDQLAHLRGAAMKLGQMLSMDAGDILEPELAEILARLRSNADPMPSKQLNSVMVNALGEQWKSAFLAFNFKPIASASIGQVHQAYSDAGDNLAVKVQYPGIRKSIDSDVDNVGTLLKIVGLIPESVDYKGLLEEAKKQLYDEANYEREAQFACRYHEALQGHPHFVVPKIYPEISSQSVLAMSFIQGTPIEKIANYDQETRDFVMHNLLELLFKELFEFKMVQTDPNFANYLYLEESKQIGLLDFGATREYSERFSSGYRQAFSSVVNDDEQGLNDALEQIGFFAQSIKPEQRMAILDLVKMACEPMLIDEAYDFKASGLAQKLREAGTILSMEQDYWHTPPADAIFLHRKIGGMYLLAARIGAKVNIRRLVQPYLKINSGLEHHHHHH | not soluble
